Laboratory results reported in patent US20110201560A1 (DKFZ DEUTSCHES KREBSFORSCHUNGSZENTRUM STIFTUNG DES …, published 2011).

Tests used:
HPV16 E6 oncoprotein [1] = target: T1, HPV16 E6 oncoprotein (HPV16, UniProt P03126 1-158); experiment: yeast two-hybrid screening
T1 construct: Expressed in yeast from pPC97; In the functional assays it is the endogenous E6 of HPV16-positive cells; also called HPV16 E6 protein; HPV-E6

HPV18 E6 protein = target: T2, HPV18 E6 protein (HPV18, UniProt P06463 1-158); experiment: yeast two-hybrid
T2 construct: Expressed in yeast from a pPC97 expression vector; also called E6 of HPV18
T2 sequence (P06463 whole entry): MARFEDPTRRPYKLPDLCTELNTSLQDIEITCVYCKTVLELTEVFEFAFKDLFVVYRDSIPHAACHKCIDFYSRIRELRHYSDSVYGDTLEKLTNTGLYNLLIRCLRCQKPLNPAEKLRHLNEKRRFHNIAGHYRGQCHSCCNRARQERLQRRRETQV

HPV11 E6 protein = target: T3, HPV11 E6 protein (HPV11, UniProt P04019 1-150); experiment: yeast two-hybrid
T3 construct: Expressed in yeast from a pPC97 expression vector; also called E6 of HPV11
T3 sequence: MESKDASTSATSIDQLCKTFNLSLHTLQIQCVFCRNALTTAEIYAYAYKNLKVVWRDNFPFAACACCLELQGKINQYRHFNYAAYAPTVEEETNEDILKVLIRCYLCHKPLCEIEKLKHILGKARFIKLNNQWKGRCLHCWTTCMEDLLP

HPV6 E6 protein = target: T4, HPV6 E6 protein (HPV6, UniProt P06462 1-150); experiment: yeast two-hybrid
T4 construct: Expressed in yeast from a pPC97 expression vector; also called E6 of HPV6
T4 sequence: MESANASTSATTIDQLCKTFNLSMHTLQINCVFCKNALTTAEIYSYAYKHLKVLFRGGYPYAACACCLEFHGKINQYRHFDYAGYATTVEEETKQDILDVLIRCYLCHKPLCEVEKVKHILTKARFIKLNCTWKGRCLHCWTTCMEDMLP

HPV16 E6 oncoprotein [2] = target: T1, HPV16 E6 oncoprotein; experiment: mutational studies (two-hybrid; assay not further described)

T1 sequence (P03126 whole entry): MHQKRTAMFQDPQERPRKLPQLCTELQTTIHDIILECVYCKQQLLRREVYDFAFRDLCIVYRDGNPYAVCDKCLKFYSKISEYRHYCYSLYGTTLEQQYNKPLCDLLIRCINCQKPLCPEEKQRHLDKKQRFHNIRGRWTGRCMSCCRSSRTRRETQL

B1: E6 pep5 (peptide)
peptide: PFLLGCFCLCCWIECQIGSYGP
notes: Linear peptide from a randomized 20-mer library; Expressed in yeast as a GAL4AD fusion (vector pADpep); also called a2
binding result (HPV16 E6 oncoprotein [1]): binds
binding result (HPV18 E6 protein): no binding
binding result (HPV11 E6 protein): no binding
binding result (HPV6 E6 protein): no binding

B2: pep11**m (peptide)
peptide: KEKEEYNSNSSSIASIGLI
notes: also called b2
binding result (HPV16 E6 oncoprotein [2]): no binding

B3: E6 pep 11 (peptide)
peptide: EFGSGCSCIVCIGLI
notes: Expressed in yeast as a GAL4AD fusion (pADpep), in the mammalian two-hybrid assay as a VP16AD fusion (pACT2), and in the p53 reporter assay as an hrGFP fusion; also called a3
binding result (HPV16 E6 oncoprotein [1]): binds
binding result (HPV18 E6 protein): no binding
binding result (HPV11 E6 protein): no binding
binding result (HPV6 E6 protein): no binding

B4: E6 pep 1 (peptide)
peptide: KGSLNCSCLVCWLQMFLGEFGP
notes: Linear peptide from a randomized 20-mer library; Expressed in yeast as a GAL4AD fusion (vector pADpep); also called a1
binding result (HPV16 E6 oncoprotein [1]): binds
binding result (HPV18 E6 protein): no binding
binding result (HPV11 E6 protein): no binding
binding result (HPV6 E6 protein): no binding
